Experimental data reported in a protein production outcome set (Wang et al. 2014).

Test: label from the status in PepcDB records
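Further: failed if final PepcDB status was selected cloned or expressed and not failed if soluble or beyond.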

Row | Sequence | protein production
1 | ISSDEALKLIKEQPQLFDEYHDGFRSQVQAWPENPVDVFVDQIRYRCMKPVNAPGGLPGLKDSKEIVIADMGCGEAQLALEINNFFKNYNKKAKKYLKRRHKVHSFDLKKANERITVADIRNVPLPDESCTIVVFCLALMGTNFLDFIKEAYRILAPRGELWIAEIKSRFSDGKGNEFVDALKLMGFFHKKTFDENKMFTRFEFFKPPAEIIEERRQ | failed
2 | IVAGFTSIPSQGDNMPAYHARPKQSDGPLPVVIVVQEIFGVHEHIRDICRRLALEGYLAIAPELYFREGDPNDFADIPTLLSGLVAKVPDSQVLADLDHVASWASRNGGDVHRLMITGFCWGGRITWLYAAHNPQLKAAVAWYGKLTGDKSLNSPKQPVDIATDLNAPVLGLYGGQDNSIPQESVETMRQALRAANAKAEIIVYPDAGHAFNADYRPSYHAESAKDGWQRMLEWFTQY | failed
3 | IVISAFEQTLWRSEPETPLKVYQLLSGAHYRTSPLDLRRMMDAPGQHFLQAAGENEIAGALCLVDEGGLSQELSQAVWAGYRRPRGNLVAQSLAAHGSNPLAATLRGRRVSRIAVHPARQREGTGRQLIAGALQYIHDLDYLSVSFGYTEELWRFWQRCGFVLVRMGNHREASSGCYTAMALLPM | failed
4 | KDNTKVIAHRGYWKTEGSAQNSIRSLERASEIGAYGSEFDVHLTADNVLVVYHDNDIQGKHIQSCTYDELKDLQLSNGEKLPTLEQYLKRAKKLKNIRLIFELKSHDTPERNRDAARLSVQMVKRMKLAKRTDYISFNMDACKEFIRLCPKSEVSYLNGELSPMELKELGFTGLDYHYKVLQSHPDWVKDCKVLGMTSNVWTVDDPKLMEEMIDMGVDFITTDLPEETQKILHSRAQ | not failed
5 | KDPLLNSLIYVSRYYGLANSPEALVNGLPLSDGKLTPFLLPRAAERAGLVAKENRAELEKISSLILPAILVLKGGDSCVLNSINMETREAEVTTLESGMVPISIPLEDLLEQYTGRYFLVKKQFR | failed
6 | KERERLEEKLEDANERIAELVKLEERQRIARDLHDTLGQKLSLIGLKSDLARKLIYKDPEQAARELKSVQQTARTSLNEVRKIVSSMKGIRLKDELINIKQILEAADIMFIYEEEKWPENISLLNENILSMCLKEAVTNVVKHSQAKTCRVDIQQLWKEVVITVSDDGTFKGEENSFSKGHGLLGMRERLEFANGSLHIDTENGTKLTMAIPNNSK | not failed
7 | KIMIAALDYDPGDGQMGGQGKGRLALRAGDVVMVYGPMDDQGFYYGELGGHRGLVPAHLLDHMSLHGH | not failed
8 | KMMVLYNETSGSSESKEIAERFKKAAEARGEAVILQPSNPDIDPEEMRKNAKENQVGVLVVIGGDGTIHHAVQNFKDTIRDYQIGIIPGGTVNNFARVLSIPLKEEDAFETILAGQTTPVDFGMVNQD | not failed
9 | KNRLGTKALNFTYTLDSGVKGTLYQFPAEYTLLFINNPGCHACAEMIEGLKASPVINGFTAAKKLKVLSIYPDEELDEWKKHRNDFAKEWTNGYDKELVIKNKNLYDLRAIPTLYLLDKNKTVLLKDATLQKVEQYLAE | not failed
10 | KNVNNAEEYWDVIDLRVYPGKNGYFELYDDDGITYEYEKGKYYIIPITWDEDKQELTIGKKRGELEMSKKIIKIIWVEKGKGIEHTKPDVEIEYNGKETITVKRG | failed
11 | KPKDIKYVVEESKFKDLREILEFMLKDAVQKLDMFLDMLNYSKPKVDVGDEVIEIKKDNVIEALKLFKDEYEVSKKHIPVPVYTYLIKRNILFLNPIEGILKPQSYLVWNAIKRLL | failed
12 | KPSQEGGKGGSEKPKRPVSAMFIFSEEKRRQLQEERPELSESELTRLLARMWNDLSEKKKAKYKAREAALKAQSERK | not failed
13 | KREHFRDDYLYRFYQYGDTHSKIPSNLYKVLARKLDMISASENINDLRSPPANHLELLEPKENKIYSIRVNKQYCLIFKYENNEVNNLYLDPH | failed
14 | KSHSRTLTPTPDGKTMLRPVLRLTSAMTREVATDHKAFYVLFTWDQEAQIYELVAQTVSERKNWCALITETAGSLKV | failed
15 | KSNEIVELSVQKWINELRDANNKLQQEVSELKKKEVNLESSLSLLSSTLESTAIGIVAINFEGDILNYNQKFAEMWKLPQQLILSKKCPRCKAFFEGQMKDPETFNRLIWAVSSTSNIESYDVLELKDGRVFAHYSQPQWLGQ | failed
16 | KSTVEKSTVGQKVAIVREDTGTIAELAEKALGNMVDIVYAGSDLKEAEEAVKKEKAPAIIVIPKGFSQSLESGEKARLEIVWYLRGTGLSEAVSTGTISSLIESLKVQLASFLLNDPKKAQLLFDPLEIVQHTYLRGSLFKNHSPEAIMNVFYSQN | not failed
17 | KTGQLLPKSPAARYEAIQWLMFQMGGVGPMFGQLGFFHKFAGKDYEDKRPRDRYVAESRRLLQVLEGRMAGRAWIMGDEYTIADIAIWPWVRNLVGFYGAGELVGFDDFPNIQRVVQAFAERPAVARGLAIPARD | failed
18 | KTIFVIVPTNEEQVAFLEALAKQDELNFDWQNPPTEPGQPVVILIPSDMVEWFLEMLKAKGIPFTVYVEEGGSENLYFQ | not failed

Row | Sequence | protein production
19 | KVGLIIISHGRIATETVNVVKELLGVKFPVAIDMPLDEKPINIYNKAVELSKIIDQGKGILFLVDIGSLTNIGQIVNKRTNISTKTIDRVDLLMALEATRKVSMGEEELDEIFFSLLKDRMGYNYELEKHIDKS | failed
20 | KYYWNNVNYDPATLFSASCLLFYVLDAIIFEHHLSSSFELQHEGYGCLLLLRYAATPYLLTAVTKYFYEQRVPISCWYAPLAVAALLSLGLLVKRFSCAYKYKYRLNSQSPIFANIETIHTYQGSRLLLSGMWGWVRQPNYLGDIVALLALAAPMALRPAWPPVLGLSLIILLLLHRATRANARNQARYHSSWQRYSTQVRSYILPRVY | failed
21 | LAAMSIDLGSQFIKIGLVKPGVPMDIVLNKESRRKTPNVISFKNDERFFAEAAAAMSSSHPQSSYNFLLSMIARKEGDDAFVTFQKTFPFTAFEFDEVRKTVVFPYKEEKYNVETLLAMILWNAKKVTEAYADQTVKDVVITVPIFLNQAERRAIASAAEIAGLNLLQLLNDGSAAALNYGVFRRKEITEKPTHMLIYDMGAVKTTATIVQYVLESTRKDGKDKQPTLRTVGVGFDKTLGGLEITNRLRDHLEKVFRDTVKTSKDISTNARAIGKLHKEAERVKQVLSANKDTYAQVESLFEEQNFRAKVTREELEKMIEDLEPRIAAPILDAIGMAQISTNDIDLVVLMGAGTRVPKVKEILKTILKDKEISNFLNTDEAIAMGAVYQAAHLSKSFKVLPFNVHEKILYPVFVNFLTKTEEGTMKPIRKSLFGENYPVPNRVMHFSSYSDDFKIDIQDADKNPLSTVEISGVKDAIEKEVTDE | failed
22 | LADYSTEELEKIADKFRSDTSGIRGTKDFTSPEELYDELKKEIKKYHPSDDTSLVDKAYRVAYDAHKGQARKSGEPYIIHPLCVAIILAELELDKETIAAGLLHDVLEDTIMTMDEMRAEFGDDVAHLVDGVTKLKHLHLTDSTKDPKDKNADRLEMQAENLRKMFLAMAKDIRVILIKLADRLHNMRTLKYQSKEAQQRIARETQDIYCPIAQRLGISKIKIELEDLCMKYLYPDAYYDLVEKVALRKTERDTYIQGLVNDVKKYVSDAGIKAEIYGRAKHFFSIYKKMVNQDKTIDQIYDLFAIRILVDTIPDCYAVLGIIHEKYKPIPGRFKDYIAMPKQNMYQSLHTTLIGPSGQPFEIQIRTYEMHRTAEYGIAAHWKYKETNNGNATTTTVTEEEKLSWLRQILEWQQDMSDNKEFMTLLKSDLNLFSDNVFAFTPSGDVKNLPKGSTPIDFAYSIHSAVGNKMVGAKVNGKLVPIDYVIKNGDQIEIITSQNSKGPSRDWLKVVKSTQAKNKINQWFRSELKEENIQHGKDLIAAYAKAKGINFAEINKPEYQEKIRRKYGFHDWNSCLATVGHGGLKESQIVNRMYDEYKKDHVVPVTDADVLGSIAEKQQAAAGTQPEHKSKSGIVVHGLYDVAVHFSKCCNPVPGDEIVGFVTRGRGISIHRTDCVNIINLSKIEKDRLIEAEWQDTALMDNGAEYQADLKIFCHDRPGLLVDITKIFTEKEINISGIQSKTSKQGIATIEVFFNIKGRDQIKVLVEKLRQIESVIDVERTTG | failed
23 | LANKQIESRIIQFDVEFPSDEVAKQLSIEKTVPVYHIIRLRKVEGEPYVIEETYMPSNVISELNEDVLHGSVYRHITETLKLTIAGSHRKIRADKSSALDREYLECAPDDPVLEVEQVAFLNTGEPFEYSFARHRYDKFVFSSVHIRK | failed
24 | LAQEKNYDLPEGVMVYVIEGPFFFGAVETFQSALANTHTDPKVLIIRMRWVPFIDVTGLQAMEEIILNLQKRGVRVLLSEANPLVDAKLRKMGIVQLIGEQNYYKEFSQALDVCRINDSDRKSQPPFEVAKPLASVTQ | not failed
25 | LDTIPTTYVDAGSVFGKTGDAEKVLNGGWNYLMETFNSYANPGYGAMLRANDAMGSDVVLNSKYGFRTHNEFSAIYGKGGTNTLSWLLAYRVINDCNGVLDNIDAAEGTQADRNRIKGQALALRGFLYLHLASCYSFAIDKDPDAVCAPIYTQSTDETIAAEGKPASSVSEVYAQSINDLEEALELIPETYVRDAKHKIDNEVVLGILSRACLYARQWEKAKTYSDKLLAKDNYLMTESEYKAGFNSVDNKEWIWGHAQTNDQSNASYQFHYLDTTTKGSYYYSFNVDPYFRDLFEDGDYRKEMLFWATDPGADVESAAYVWMRNSKFRFRDIENQLGDIVLMRVAEIYLINAEAKAHLNDPDAINKLNDLKTARGAKTIHTNLSQQDLLETIWLERRKELWGEGFSLIDIIRNQQTVVRNAYPEGPIDYIYTDENGQTHTLKKKTQGHRFFNFPDKSAFCPNSKYYLYRITDSEELANKNLYKDHPKLSIYTK | not failed
26 | LDYQRLYGTRCFSCDQFIEGEVVSALGKTYHPDCFVCAVCRLPFPPGDRVTFNGKECMCQKCSLPVSV | not failed
27 | LEAVAPERPRCAYCSAEASKRCSRCQNEWYCCRECQVKHWEKHGKTC | not failed
28 | LECDGKVNICCKKQFFVSFKDIGWNDWIIAPSGYHANYCEGECPSHIAGTSGSSLSFHSTVINHYRMRGHSPFANLKSCCVPTKLRPMSMLYYDDGQNIIKKDIQNMIVEECGCS | not failed
29 | LETSWIKPGQASWEWWNDAAPYGPDVNFVSGYNLETYKYYIDFASKYGIRYIIMDEGWAKSTRDPYTPNAKVDVHELIRYAEKKNVGIVLWLTWLTVENNMDLFKTFSEWGVKGVKIDFMDRSDQWMMNFYERVAAEAAKYKLFVDFHGSVSPKGLEYKYPNVLSYEGVRGMEQMGGATPDNSIFMPFMRNAVGAMDYTPGAM | failed
30 | LETYNTCDTPPPLNNLTPYRDDGKEALKFYTDPSYFFDLWKEKMLQDTKDIMKEKRKHRKEKKDNPNRGNVNPRKIKTRKEEWEKMKMGQEF | failed
31 | LFGVTSELSKDGRERIYRVEGQLFYASVEDFMAAFDFREALDRVVIDVSRAHIWDISSVQALDMAVLKFRREGAEVRIVGMNEASETMVDRLAIHD | not failed
32 | LGEICKAVLVDPSSNLTLDHWADKCGLSRRTLTRLFRRETGQSFSGWRQRVRLLEALARLGAGETVTGVALDVGYDSPSAFAAMFKRELGAAPRHYLR | failed
33 | LGKILQGVVVVLSGFQNPFRSELRDKALELGAKYRPDWTRDSTHLICAFANTPKYSQVLGLGGRIVRKEWVLDCH | failed
34 | LGNEDFNSVIQQMAQGRQIEYIDIERPSTGGLGFSVVALRSQNLGKVDIFVKDVQPGSVADRDQRLKENDQILAINHTPLDQNISHQQAIALLQQTTGSLRLIVAREPVHTKSST | not failed
35 | LGVVPEVRDWFTLGDHRFLVMDFLEGRPLNSFFAERHPLLTPDPEPDAVAAYTAWALRIHRAVEQAVHAVHARGIVFNDLHVFNIMVAPDEESVSLLDFEAAAPIEEN | failed
